Target: the molecule itself
Experiment: cryo-EM structure

B1: HCoV-NL63 spike (S) glycoprotein ectodomain fused to a GCN4 trimerization motif (domain or fragment)
chain: FFTCNSNANLSMLQLGVPDNSSTIVTGLLPTHWFCANQSTSVYSANGFFYIDVGNHRSAFALHTGYYDANQYYIYVTNEIGLNASVTLKICKFSRNTTFDFLSNASSSFDCIVNLLFTEQLGAPLGITISGETVRLHLYNVTRTFYVPAAYKLTKLSVKCYFNYSCVFSVVNATVTVNVTTHNGRVVNYTVCDDCNGYTDNIFSVQQDGRIPNGFPFNNWFLLTNGSTLVDGVSRLYQPLRLTCLWPVPGLKSSTGFVYFNATGSDVNCNGYQHNSVVDVMRYNLNFSANSLDNLKSGVIVFKTLQYDVLFYCSNSSSGVLDTTIPFGPSSQPYYCFINSTINTTHVSTFVGILPPTVREIVVARTGQFYINGFKYFDLGFIEAVNFNVTTASATDFWTVAFATFVDVLVNVSATNIQNLLYCDSPFEKLQCEHLQFGLQDGFYSANFLDDNVLPETYVALPIYYQHTDINFTATASFGGSCYVCKPHQVNISLNGNTSVCVRTSHFSIRYIYNRVKSGSPGDSSWHIYLKSGTCPFSFSKLNNFQKFKTICFSTVEVPGSCNFPLEATWHYTSYTIVGALYVTWSEGNSITGVPYPVSGIREFSNLVLNNCTKYNIYDYVGTGIIRSSNQSLAGGITYVSNSGNLLGFKNVSTGNIFIVTPCNQPDQVAVYQQSIIGAMTAVNESRYGLQNLLQLPNFYYVSNGGNNCTTAVMTYSNFGICADGSLIPVRPRNSSDNGISAIITANLSIPSNWTTSVQVEYLQITSTPIVVDCATYVCNGNPRCKNLLKQYTSACKTIEDALRLSAHLETNDVSSMLTFDSNAFSLANVTSFGDYNLSSVLPQRNIRSSRIAGRSALEDLLFSKVVTSGLGTVDVDYKSCTKGLSIADLACAQYYNGIMVLPGVADAERMAMYTGSLIGGMVLGGLTSAAAIPFSLALQARLNYVALQTDVLQENQKILAASFNKAINNIVASFSSVNDAITQTAEAIHTVTIALNKIQDVVNQQGSALNHLTSQLRHNFQAISNSIQAIYDRLDSIQADQQVDRLITGRLAALNAFVSQVLNKYTEVRGSRRLAQQKINECVKSQSNRYGFCGNGTHIFSIVNSAPDGLLFLHTVLLPTDYKNVKAWSGICVDGIYGYVLRQPNLVLYSDNGVFRVTSRVMFQPRLPVLSDFVQIYNCNVTFVNISRVELHTVIPDYVDVNKTLQEFAQNLPKYVKPNFDLTPFNLTYLNLSSELKQLEAKTASLFQTTVELQGLIDQINSTYVDLKLLNRFENLIKRMKQIEDKIEEIESKQKKIENEIARIKKIKLVPRGSLE
modifications: N-linked glycans (glycosylation shown at 34 of 39 NXS/T sequons; paucimannosidic or high-mannose)
  stoichiometry N: 3
